Assay results taken from patent US20230322944A1.
Where a chain is given by its changes, count along the chain named.

B1: MAB05 (antibody, V domains shown)
VH: EVQLLESGGGLVQPGGSLRLSCAASGFTVTSYAVHWVRQAPGKGLEWLGVIWSGGSTDYNAAFISRLTISKDNSKNTVYFQMNSLRAEDTAVYYCARAGDANYDGFAYWGQGTLVTVSS
VL: DIQMTQSPSSLSASVGDRVTITCQASQSVSFLYWYQQRPGKAPRLLIYDTSNLASGVPSRFSGSGSGTSYTFTISSLQPEDIATYYCQQWSTYPLTFGQGTKVEIK
B2: MAB06 (antibody, V domains shown)
VH: B1 VH
VL: B1 VL with Q27S, L32M

Biological target: cynomolgus monkey CD122 on NK cells (cynomolgus monkey) (UniProt Q38J85)
Assay: flow cytometry of blood from cynomolgus monkeys after a single IV dose of 1 mg/kg

Chain of cynomolgus monkey CD122 on NK cells (cynomolgus monkey) (Q38J85 27-551 limits assumed): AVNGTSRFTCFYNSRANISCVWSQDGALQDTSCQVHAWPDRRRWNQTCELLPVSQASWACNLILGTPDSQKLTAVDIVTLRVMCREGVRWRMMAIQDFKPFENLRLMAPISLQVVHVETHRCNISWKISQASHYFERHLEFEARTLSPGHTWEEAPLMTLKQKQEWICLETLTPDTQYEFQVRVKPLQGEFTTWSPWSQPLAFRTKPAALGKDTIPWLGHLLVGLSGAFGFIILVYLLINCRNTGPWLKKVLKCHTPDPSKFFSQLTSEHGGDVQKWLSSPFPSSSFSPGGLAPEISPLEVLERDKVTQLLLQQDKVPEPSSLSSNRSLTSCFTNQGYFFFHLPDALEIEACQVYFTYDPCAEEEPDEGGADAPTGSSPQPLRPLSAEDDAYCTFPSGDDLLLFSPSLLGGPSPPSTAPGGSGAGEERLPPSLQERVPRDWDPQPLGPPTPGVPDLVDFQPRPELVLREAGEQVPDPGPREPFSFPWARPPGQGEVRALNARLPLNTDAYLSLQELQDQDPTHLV

Binder | CD122 receptor occupancy on NK cells
B1 | > 90%
B2 | > 90%
